T1: G9a and GLP (Homo sapiens, UniProt Q96KQ7+Q9H9B1)
T1 sequence (Q96KQ7 2-1210 limits assumed): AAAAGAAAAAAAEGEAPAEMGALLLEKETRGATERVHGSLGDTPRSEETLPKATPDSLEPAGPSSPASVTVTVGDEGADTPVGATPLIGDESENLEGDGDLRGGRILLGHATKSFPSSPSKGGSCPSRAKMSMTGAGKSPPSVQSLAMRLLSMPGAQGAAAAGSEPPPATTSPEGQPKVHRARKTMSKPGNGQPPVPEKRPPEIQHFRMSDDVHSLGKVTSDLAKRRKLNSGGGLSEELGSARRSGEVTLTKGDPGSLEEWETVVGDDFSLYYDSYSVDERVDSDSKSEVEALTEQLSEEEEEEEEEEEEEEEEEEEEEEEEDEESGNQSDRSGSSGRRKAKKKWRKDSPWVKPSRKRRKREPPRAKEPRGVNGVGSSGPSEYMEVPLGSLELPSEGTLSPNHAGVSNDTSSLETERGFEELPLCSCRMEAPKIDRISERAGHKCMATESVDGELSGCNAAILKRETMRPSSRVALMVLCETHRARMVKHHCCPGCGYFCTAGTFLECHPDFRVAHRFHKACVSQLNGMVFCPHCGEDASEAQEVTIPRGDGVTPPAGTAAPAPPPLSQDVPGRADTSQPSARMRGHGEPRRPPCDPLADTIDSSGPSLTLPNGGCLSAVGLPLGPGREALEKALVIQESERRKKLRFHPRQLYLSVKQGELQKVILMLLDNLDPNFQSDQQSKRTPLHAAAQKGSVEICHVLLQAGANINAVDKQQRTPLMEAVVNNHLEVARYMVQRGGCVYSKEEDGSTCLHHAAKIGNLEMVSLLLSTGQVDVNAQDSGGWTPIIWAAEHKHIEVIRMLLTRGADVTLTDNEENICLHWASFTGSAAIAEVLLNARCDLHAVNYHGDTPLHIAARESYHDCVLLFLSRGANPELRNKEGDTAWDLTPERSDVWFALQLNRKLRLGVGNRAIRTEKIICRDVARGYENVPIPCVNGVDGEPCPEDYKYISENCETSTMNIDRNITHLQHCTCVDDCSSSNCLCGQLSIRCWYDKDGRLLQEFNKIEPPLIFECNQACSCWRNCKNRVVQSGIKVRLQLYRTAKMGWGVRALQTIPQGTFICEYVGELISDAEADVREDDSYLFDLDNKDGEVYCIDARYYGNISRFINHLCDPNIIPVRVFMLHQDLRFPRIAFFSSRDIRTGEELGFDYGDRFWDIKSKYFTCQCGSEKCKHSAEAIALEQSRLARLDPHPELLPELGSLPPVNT
T1 sequence (Q9H9B1 2-1298 limits assumed): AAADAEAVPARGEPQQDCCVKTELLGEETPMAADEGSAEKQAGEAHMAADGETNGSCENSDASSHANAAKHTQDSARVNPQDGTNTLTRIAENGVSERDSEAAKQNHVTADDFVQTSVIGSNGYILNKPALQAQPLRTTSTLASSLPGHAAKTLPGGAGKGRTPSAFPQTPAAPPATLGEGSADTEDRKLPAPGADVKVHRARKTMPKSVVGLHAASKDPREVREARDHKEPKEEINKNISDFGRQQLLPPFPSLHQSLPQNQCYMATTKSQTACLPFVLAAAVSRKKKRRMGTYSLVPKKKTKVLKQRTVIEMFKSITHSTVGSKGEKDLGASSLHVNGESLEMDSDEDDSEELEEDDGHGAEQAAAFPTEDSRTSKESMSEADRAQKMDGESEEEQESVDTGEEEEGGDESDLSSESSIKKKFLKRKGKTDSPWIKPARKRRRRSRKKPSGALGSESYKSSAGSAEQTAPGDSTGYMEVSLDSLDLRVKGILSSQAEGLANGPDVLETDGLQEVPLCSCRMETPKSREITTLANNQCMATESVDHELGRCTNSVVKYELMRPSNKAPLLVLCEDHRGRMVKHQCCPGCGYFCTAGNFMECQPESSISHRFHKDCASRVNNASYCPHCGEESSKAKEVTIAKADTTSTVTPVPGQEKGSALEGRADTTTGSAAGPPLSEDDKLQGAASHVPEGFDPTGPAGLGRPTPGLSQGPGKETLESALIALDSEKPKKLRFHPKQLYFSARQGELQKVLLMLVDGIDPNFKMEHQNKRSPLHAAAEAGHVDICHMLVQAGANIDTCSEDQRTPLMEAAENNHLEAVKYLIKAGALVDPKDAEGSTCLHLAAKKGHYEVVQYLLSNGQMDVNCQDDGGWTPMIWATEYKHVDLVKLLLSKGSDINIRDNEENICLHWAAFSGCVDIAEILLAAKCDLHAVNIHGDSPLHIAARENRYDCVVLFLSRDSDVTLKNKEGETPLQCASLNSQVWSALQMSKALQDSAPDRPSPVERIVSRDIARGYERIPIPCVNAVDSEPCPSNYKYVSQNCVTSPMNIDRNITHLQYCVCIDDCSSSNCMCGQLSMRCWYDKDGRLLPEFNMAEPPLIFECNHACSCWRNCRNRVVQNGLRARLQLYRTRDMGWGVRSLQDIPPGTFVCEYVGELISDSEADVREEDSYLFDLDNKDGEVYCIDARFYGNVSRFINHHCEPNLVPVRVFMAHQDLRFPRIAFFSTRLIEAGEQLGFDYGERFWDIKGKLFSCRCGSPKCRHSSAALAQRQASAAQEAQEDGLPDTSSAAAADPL

B1: FAM98B (protein, UniProt Q52LJ0 1-433, looked up)
Protein FAM98B: MRGPEPGPQPTMEGDVLDTLEALGYKGPLLEEQALTKAAEGGLSSPEFSELCIWLGSQIKSLCNLEESITSAGRDDLESFQLEISGFLKEMACPYSVLISGDIKDRLKKKEDCLKLLLFLSTELQASQILQNKKHKNSQLDKNSEVYQEVQAMFDTLGIPKSTTSDIPHMLNQVESKVKDILSKVQKNHVGKPLLKMDLNSEQAEQLERINDALSCEYECRRRMLMKRLDVTVQSFGWSDRAKVKTDDIARIYQPKRYALSPKTTITMAHLLAAREDLSKIIRTSSGTSREKTACAINKVLMGRVPDRGGRPNEIEPPPPEMPPWQKRQEGGGGRGGWGGGGGGGGRGGGGGGGGRGGWGGGGGGWGGGGGGGGGWGGGGGGGRGGFQGRGDYGGRGGYGGRGGYGGRGYGDPYGGGGGGGGGGGGGGGYRRY
B2: PUM1 (protein, UniProt Q14671 2-1186, looked up)
Pumilio homolog 1: SVACVLKRKAVLWQDSFSPHLKHHPQEPANPNMPVVLTSGTGSQAQPQPAANQALAAGTHSSPVPGSIGVAGRSQDDAMVDYFFQRQHGEQLGGGGSGGGGYNNSKHRWPTGDNIHAEHQVRSMDELNHDFQALALEGRAMGEQLLPGKKFWETDESSKDGPKGIFLGDQWRDSAWGTSDHSVSQPIMVQRRPGQSFHVNSEVNSVLSPRSESGGLGVSMVEYVLSSSPGDSCLRKGGFGPRDADSDENDKGEKKNKGTFDGDKLGDLKEEGDVMDKTNGLPVQNGIDADVKDFSRTPGNCQNSANEVDLLGPNQNGSEGLAQLTSTNGAKPVEDFSNMESQSVPLDPMEHVGMEPLQFDYSGTQVPVDSAAATVGLFDYNSQQQLFQRPNALAVQQLTAAQQQQYALAAAHQPHIGLAPAAFVPNPYIISAAPPGTDPYTAGLAAAATLGPAVVPHQYYGVTPWGVYPASLFQQQAAAAAAATNSANQQTTPQAQQGQQQVLRGGASQRPLTPNQNQQGQQTDPLVAAAAVNSALAFGQGLAAGMPGYPVLAPAAYYDQTGALVVNAGARNGLGAPVRLVAPAPVIISSSAAQAAVAAAAASANGAAGGLAGTTNGPFRPLGTQQPQPQPQQQPNNNLASSSFYGNNSLNSNSQSSSLFSQGSAQPANTSLGFGSSSSLGATLGSALGGFGTAVANSNTGSGSRRDSLTGSSDLYKRTSSSLTPIGHSFYNGLSFSSSPGPVGMPLPSQGPGHSQTPPPSLSSHGSSSSLNLGGLTNGSGRYISAAPGAEAKYRSASSASSLFSPSSTLFSSSRLRYGMSDVMPSGRSRLLEDFRNNRYPNLQLREIAGHIMEFSQDQHGSRFIQLKLERATPAERQLVFNEILQAAYQLMVDVFGNYVIQKFFEFGSLEQKLALAERIRGHVLSLALQMYGCRVIQKALEFIPSDQQNEMVRELDGHVLKCVKDQNGNHVVQKCIECVQPQSLQFIIDAFKGQVFALSTHPYGCRVIQRILEHCLPDQTLPILEELHQHTEQLVQDQYGNYVIQHVLEHGRPEDKSKIVAEIRGNVLVLSQHKFASNVVEKCVTHASRTERAVLIDEVCTMNDGPHSALYTMMKDQYANYVVQKMIDVAEPGQRKIVMHKIRPHIATLRKYTYGKHILAKLEKYYMKNGVDLGPICGPPNGII
B3: ILKAP (protein, UniProt Q9H0C8 1-392, looked up)
Integrin-linked …: MDLFGDLPEPERSPRPAAGKEAQKGPLLFDDLPPASSTDSGSGGPLLFDDLPPASSGDSGSLATSISQMVKTEGKGAKRKTSEEEKNGSEELVEKKVCKASSVIFGLKGYVAERKGEREEMQDAHVILNDITEECRPPSSLITRVSYFAVFDGHGGIRASKFAAQNLHQNLIRKFPKGDVISVEKTVKRCLLDTFKHTDEEFLKQASSQKPAWKDGSTATCVLAVDNILYIANLGDSRAILCRYNEESQKHAALSLSKEHNPTQYEERMRIQKAGGNVRDGRVLGVLEVSRSIGDGQYKRCGVTSVPDIRRCQLTPNDRFILLACDGLFKVFTPEEAVNFILSCLEDEKIQTREGKSAADARYEAACNRLANKAVQRGSADNVTVMVVRIGH
B4: MINA (protein, UniProt Q8IUF8 1-465, looked up)
Ribosomal oxygenase 2: MPKKAKPTGSGKEEGPAPCKQMKLEAAGGPSALNFDSPSSLFESLISPIKTETFFKEFWEQKPLLIQRDDPALATYYGSLFKLTDLKSLCSRGMYYGRDVNVCRCVNGKKKVLNKDGKAHFLQLRKDFDQKRATIQFHQPQRFKDELWRIQEKLECYFGSLVGSNVYITPAGSQGLPPHYDDVEVFILQLEGEKHWRLYHPTVPLAREYSVEAEERIGRPVHEFMLKPGDLLYFPRGTIHQADTPAGLAHSTHVTISTYQNNSWGDFLLDTISGLVFDTAKEDVELRTGIPRQLLLQVESTTVATRRLSGFLRTLADRLEGTKELLSSDMKKDFIMHRLPPYSAGDGAELSTPGGKLPRLDSVVRLQFKDHIVLTVLPDQDQSDEAQEKMVYIYHSLKNSRETHMMGNEEETEFHGLRFPLSHLDALKQIWNSPAISVKDLKLTTDEEKESLVLSLWTECLIQVV

system: 3×MBT domain of L3MBTL1; assay: Triple SILAC pull-down, 3xMBT/3xMBTD355N ratio (cytoplasmic, nuclear and chromatin fractions of 293T cells); type: binding, human; conditions: SILAC ratio, pull-down 3xMBT vs 3xMBTD355N; experiment with UNC0638 in heavy SILAC media;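 note: proteins quantified with MaxQuant, requiring at least two unique peptides and quantification in both label directions, normalized to the mean of proteins from a digested loading control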

Molecule | 3xMBT/D355N UNC Heavy [log base 2]
B1 | 3.88
B2 | 2.08
B3 | 3.22
B4 | 2.27

same assay, conditions: SILAC ratio, pull-down 3xMBT vs 3xMBTD355N; experiment with UNC0638 in light SILAC media

Molecule | 3xMBT/D355N UNC Light [log base 2]
B1 | 3.18
B2 | 1.66
B3 | 2.54
B4 | 2.12

biological target: T1, G9a and GLP; assay: Triple SILAC pull-down after UNC0638 treatment of 293T cells, DMSO/UNC0638 ratio of protein captured by 3×MBT; type: cell-based; design: cells were treated for 24 hours with UNC0638 at 2.5 μM or DMSO vehicle control; endogenous in cells; host or cells: HEK 293T; conditions: SILAC ratio DMSO/UNC0638 of protein pulled down with 3xMBT; UNC0638 in heavy SILAC media;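 note: mass spectrometry (Q-Exactive) SILAC quantitation, DMSO/UNC0638 ratio computed after subtracting 3×MBTD355N mutant pull-down background, only proteins with at least twofold 3×MBT over mutant signal considered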

Molecule | Relative to UNC0638 UNC Heavy [log base 2]
B1 | 0.11
B2 | 0.35
B3 | −0.07
B4 | 0.34

same assay, conditions: SILAC ratio DMSO/UNC0638 of protein pulled down with 3xMBT; UNC0638 in light SILAC media

Molecule | Relative to UNC0638 UNC Light [log base 2]
B1 | 0.14
B2 | −0.08
B3 | 0.33
B4 | −0.08

same assay, conditions: average of UNC Light and UNC Heavy experiments

Molecule | Relative to UNC0638 Average [log base 2]
B1 | 0.13
B2 | 0.13
B3 | 0.13
B4 | 0.13
